Results on one molecule are retold here after article doi:10.1101/2023.04.21.537819, “DNA damage-induced interaction between a lineage addiction oncogenic transcription factor and the MRN complex shapes a tissue-specific DNA Damage Response and cancer predisposition” (bioRxiv, 2023).

The assay concerns the target T1, mCherry-LacR-MITF (human, UniProt O75030-9 1-419).
T1 construct: MITF, human; In the self-association test the second copy was MITF-GFP (pEGFP-C1-MITF, Ngeow et al. 2018) in place of mCherry-LacR; also called LacR-mCherry-MITF; MITF WT; source: U2OS-LacO#13 cells, transfected, in cells; not shown: mCherry-LacR, N-terminal, kept
T1 sequence (looked up): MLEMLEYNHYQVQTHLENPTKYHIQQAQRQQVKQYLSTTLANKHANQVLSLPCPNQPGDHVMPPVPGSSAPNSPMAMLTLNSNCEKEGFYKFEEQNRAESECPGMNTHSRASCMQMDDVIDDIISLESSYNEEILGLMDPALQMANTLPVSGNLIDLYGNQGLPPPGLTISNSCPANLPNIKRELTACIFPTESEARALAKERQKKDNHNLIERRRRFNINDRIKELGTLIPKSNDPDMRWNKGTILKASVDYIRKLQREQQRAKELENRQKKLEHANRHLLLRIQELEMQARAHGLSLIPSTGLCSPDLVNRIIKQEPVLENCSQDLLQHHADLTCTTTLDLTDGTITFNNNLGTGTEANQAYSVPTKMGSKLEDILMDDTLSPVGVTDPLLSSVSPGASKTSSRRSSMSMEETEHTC
Briefly: LacR/LacO nuclear tethering assay; U2OS-LacO#13 cells transfected 24 h with an mCherry-LacR bait (tethered at the LacO array) and a GFP-tagged prey; fixed, confocal microscopy; ratio of GFP fluorescence inside the mCherry dot to the rest of the nucleus. Particulars: partners not purified.

B1: NBS1-GFP (natural protein, UniProt O60934 1-754, looked up)
chain: MWKLLPAAGPAGGEPYRLLTGVEYVVGRKNCAILIENDQSISRNHAVLTANFSVTNLSQTDEIPVLTLKDNSKYGTFVNEEKMQNGFSRTLKSGDGITFGVFGSKFRIEYEPLVACSSCLDVSGKTALNQAILQLGGFTVNNWTEECTHLVMVSVKVTIKTICALICGRPIVKPEYFTEFLKAVESKKQPPQIESFYPPLDEPSIGSKNVDLSGRQERKQIFKGKTFIFLNAKQHKKLSSAVVFGGGEARLITEENEEEHNFFLAPGTCVVDTGITNSQTLIPDCQKKWIQSIMDMLQRQGLRPIPEAEIGLAVIFMTTKNYCDPQGHPSTGLKTTTPGPSLSQGVSVDEKLMPSAPVNTTTYVADTESEQADTWDLSERPKEIKVSKMEQKFRMLSQDAPTVKESCKTSSNNNSMVSNTLAKMRIPNYQLSPTKLPSINKSKDRASQQQQTNSIRNYFQPSTKKRERDEENQEMSSCKSARIETSCSLLEQTQPATPSLWKNKEQHLSENEPVDTNSDNNLFTDTDLKSIVKNSASKSHAAEKLRSNKKREMDDVAIEDEVLEQLFKDTKPELEIDVKVQKQEEDVNVRKRPRMDIETNDTFSDEAVPESSKISQENEIGKKRELKEDSLWSAKEISNNDKLQDDSEMLPKKLLLTEFRSLVIKNSTSRNPSGINDDYGQLKNFKKFKKVTYPGAGKLPHIIGGSDLIAHHARKNTELEEWLRQEMEVQNQHAKEESLADDLFRYNPYLKRRR
notes: NBS1 (nibrin), component of the MRN complex; plasmid pcDNA3.1(+)-C-eGFP-NBS1 from GenScript; also called GFP-NBS1; pcDNA3.1(+)-C-eGFP-NBS1; source: U2OS-LacO#13 cells, transfected, in cells; not shown: eGFP, C-terminal, kept
On to B1, for which the “median enrichment of GFP at the mCherry dot over the rest of the nucleus” value came to 7 fold.
